Experimental data as given in publication PMC9157410.
pKd: −log10 of the molar value.

Target: recombinant TpiA (triosephosphate isomerase of Streptococcus pneumoniae D39) (S. pneumoniae D39) (UniProt P66943)
Assay: SPR; Biacore X100; rTpiA amine-coupled on a CM5 chip; plasminogen, laminin and BSA injected at 3.125 to 50 nM, contact time 120 s, 20 µL/min; 100 mM HEPES pH 7.4, 150 mM NaCl, 3 mM EDTA, 0.005% surfactant P20; apparent constants

Chain of UniProt P66943 (P66943 2-252): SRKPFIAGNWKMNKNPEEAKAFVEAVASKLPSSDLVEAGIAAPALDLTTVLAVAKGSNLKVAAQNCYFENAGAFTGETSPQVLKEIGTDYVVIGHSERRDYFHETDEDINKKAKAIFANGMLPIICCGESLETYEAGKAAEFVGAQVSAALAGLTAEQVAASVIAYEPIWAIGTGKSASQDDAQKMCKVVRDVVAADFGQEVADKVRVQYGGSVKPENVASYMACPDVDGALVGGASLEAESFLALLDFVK

“plasminogen from human plasma (natural protein)” gave a pKd of 6.39, a koff of 0.00553 s⁻¹ and a kon of 13400 M⁻¹ s⁻¹.
